A word on the koff: it is the first-order rate constant of dissociation. Usually Kd stands for the concentration at which binding is half-saturated. A lower Kd goes with tighter binding.

The labels stand for the following.
B1: Plasmodium falciparum Hsp110 (PfHsp70-z, PF3D7_0708800) (natural protein)
chain: MSVLGIDIGNDNSVVATINKGAINVVRNDISERLTPTLVGFTEKERLIGDSALSKLKSNYKNTCRNIKNLIGKIGTDVKDDIEIHEAYGDLIPCEYNYLGYEVEYKNEKVVFSAVRVLSALLSHLIKMAEKYIGKECKEIVLSYPPTFTNCQKECLLAATKIINANVLRIISDNTAVALDYGMYRMKEFKEDNGSLLVFVNIGYANTCVCVARFFSNKCEILCDIADSNLGGRNLDNELIKYITNIFVNNYKMNPLYKNNTPELCPMGTGRLNKFLVTSTASDQQNGINNKVRIKLQEVAIKTKKVLSANNEASIHVECLYEDLDCQGSINRETFEELCSNFFLTKLKHLLDTALCISKVNIQDIHSIEVLGGSTRVPFIQNFLQQYFQKPLSKTLIADESIARGCVLSAAMVSKHYKVKEYECVEKVTHPINVEWHNINDASKSNVEKLYTRDSLKKKVKKIVIPEKGHIKLTAYYENTPDLPSNCIKELGSCIVKINEKNDKIVESHVMTTFSNYDTFTFLGAQTVTKSVIKSKDEKKKADDKTEDKGEKKDAKDQEQNDDKDQTNDNNMNEKDTNDKKEKNNETNSPNKTELKKGEEGKVQTCYTTIPIETLLAQGSYSSKDIFNFSEQEINMQHSDILEGERLKHLNELETIIYESRSRLNGIYKNFVMDDERDRILLSLDDYENWLYDNIEENKNMFIKKKEEIRDLIKNIVQKFDVYNSKQQNLGNIINHLNNIITQCSNKPSDESQNIINRTTKFLNNINSLQEQEKNKPLYEPPVYTLNDIEAEFNEVTQLAQKFFSKLEVEELAKQKAKQEKEKEKEKEKEKEKEKEKNEETNLDANEEQNNEAKNNEEKENSTKNENSANPEE
B2: ANNNMYRR (peptide)
peptide: ANNNMYRR
B3: NRLLTG (peptide)
peptide: NRLLTG
B4: NRNNTG (peptide)
peptide: NRNNTG
B5: ALLLMYRR (peptide)
peptide: ALLLMYRR
B6: Plasmodium falciparum heat shock protein 70-1 (PfHsp70-1) (natural protein)
chain: not shown

“And” between values parts separate entries of the source, which are not always exact repeats. Equal values may be shown once.

One data set concerns the molecule itself. Kind of data set: SPR.
With B1, the off-rate constant (koff) is 5.27e-05 s⁻¹ and 7.73e-05 s⁻¹ and 3.37e-05 s⁻¹.

Another data set deals with B6. Kind of data set: SPR. For orientation: Surface plasmon resonance follows binding to a sensor surface in real time, without labels.
Molecule B2 had a Kd of 45.4 ± 0.07 nM.
For the molecule B3, the Kd was determined as 181 ± 0.01 nM.
B4 had a Kd of 296 ± 0.07 nM.
B5 had a dissociation constant (Kd) of 140 ± 0.4 nM.

For a further data set, the target named is T1, E. coli Hsp70 (DnaK) (E. coli, UniProt P0A6Y8 1-638). Kind of data set: SPR.
The molecule B2 had a Kd of 8960 ± 60 nM.
Same read-out and setting: then B3, with 2530 ± 30 nM; and B4, with 7310 ± 10 nM.
For the molecule B5, binding was put at a Kd of 4450 ± 50 nM.

Another data set has as its target B1. Kind of data set: SPR.
Take B2: binding was characterised by a dissociation constant (Kd) of 8.31 ± 0.01 nM.
On the same count and under the same terms, with B3 the figure was 128 ± 0.08 nM; with B4, 52.5 ± 0.05 nM; with B5, 97.1 ± 0.09 nM.

The target in the next data set is B1. Kind of data set: SPR. The source holds these as a separate data set.
As to B6, the binding result was “binds”.

A further data set addresses B6. Kind of data set: SPR. The source holds these as a separate data set.
As to B2, binding was characterised by a dissociation constant (Kd) of 4.02 ± 0.02 nM.
B3 returned a dissociation constant (Kd) of 97.4 ± 0.04 nM.
On the same count and under the same terms, with B4 the figure was 10.2 ± 0.02 nM; with B5, 61.8 ± 0.08 nM.

The next data set addresses T1, E. coli Hsp70 (DnaK). Kind of data set: SPR. This is another data set of the same source.
On to B2, for which the Kd was determined as 440 ± 4 nM.
The same measure, in the same setting: with B3 the figure was 12.3 ± 0.03 nM; with B4, 24.9 ± 0.09 nM; with B5, 82 ± 0.02 nM.

The target of the next data set is B1. Kind of data set: SPR. The source holds these as a separate data set.
The molecule B2 returned a Kd of 9.37 ± 0.07 nM.
Molecule B3 came in with a Kd of 145 ± 0.03 nM. This Kd lies about 15-fold higher than the previous one.
B4: the Kd was 24.1 ± 0.01 nM. This Kd is about 6-fold lower than that of the molecule before.
The molecule B5 came in with a Kd of 43.1 ± 0.01 nM.

Values taken from paper PMC11066147 (Heliyon, 2024).
